The target of assay [1] is T1, human β-amyloid 1-40 (human, UniProt P05067 672-711).
T1 construct: domain: β-amyloid (1-40); Used in solution over captured antibody (Biacore) or coated on ELISA plates; also called human Aβ peptide (1-40); Aβ peptide (1-40)
The experiment in a line: SPR Biacore 3000; mAb captured on anti-mouse IgG, Aβ 1-40 at 4-500 nM. As for the experimental part: (§1) Purified mouse antibody preparations were captured on a polyclonal anti-mouse IgG antibody chip surface. Freshly prepared human β-amyloid 1-40 was diluted down in HBS-EP buffer and passed over the captured antibody surface at concentrations ranging from 4-500 nM for 5 minutes. […] Regeneration was achieved via a pulse of 100 mM H₃PO₄. […] All runs were double referenced against a blank surface and blank buffer injections.
On the technique in general: In SPR one partner is held on a chip, and binding of the other changes the refractive index at the surface.

For another assay, the target named is T2, ovalbumin protein (UniProt P01012 2-386).
T2 sequence (looked up): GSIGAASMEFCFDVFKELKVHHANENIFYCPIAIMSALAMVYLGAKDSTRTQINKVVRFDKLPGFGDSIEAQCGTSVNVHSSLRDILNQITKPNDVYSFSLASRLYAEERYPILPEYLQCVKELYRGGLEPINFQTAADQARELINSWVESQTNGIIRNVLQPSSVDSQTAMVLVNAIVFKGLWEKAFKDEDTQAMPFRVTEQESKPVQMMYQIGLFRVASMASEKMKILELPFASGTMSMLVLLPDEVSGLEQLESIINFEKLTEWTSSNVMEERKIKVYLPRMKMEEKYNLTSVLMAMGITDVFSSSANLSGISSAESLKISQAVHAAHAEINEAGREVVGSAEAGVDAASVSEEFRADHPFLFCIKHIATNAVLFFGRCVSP
The experiment in a line: FMAT bead immunoassay, culture supernatant. An excerpt: (§2) Each of the expressed antibodies contained in culture supernatant was then screened in an FMAT (Fluorescent Microvolume Assay Technology) homogenous immunoassay. 29 positive antibodies were identified from this screening cascade that were negative for ovalbumin protein passively absorbed to polystyrene beads but positive for: [0158] (i) N-terminal coupled […] (22-38) (SEQ ID No:73) ovalbumin conjugate bound to polystyrene beads, [0159] (ii) N-terminal biotinylated β-amyloid(1-40) peptide bound to streptavidin coated polystyrene beads, [0160] (iii) C-terminal biotinylated β-amyloid(1-40) peptide bound to streptavidin coated polystyrene beads and [0161] (iv) N-terminal biotinylated β-amyloid (24-34) peptide, residues 24-34 of β-amyloid being […] (SEQ ID No:8), bound to streptavidin coated polystyrene beads.

The target in assay [2] is T3, N-terminal biotinylated β-amyloid (24-34) peptide.
T3 peptide: Biotin-VGSNKGAIIGL
The assay can be described thus: FMAT bead immunoassay, culture supernatant.
Description: as §2

Assay [3] concerns the target T4, N-terminal coupled CGGGEDVGSNKGAIIGLMVGG (22-38) ovalbumin conjugate (coupled by the N-terminus to ovalbumin).
T4 peptide: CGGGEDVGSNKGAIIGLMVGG
The experiment in a line: FMAT bead immunoassay, culture supernatant.
Description: as §2

Assay [4] concerns the target T1, human β-amyloid 1-40. The assay can be described thus: SPR Biacore 3000; mAb captured on anti-mouse IgG; triplicate run. How it is done: as §1
Assay [5] concerns the target T1, human β-amyloid 1-40. The assay can be described thus: SPR Biacore T100; antibody captured on anti-human IgG, Aβ 1-40 at 1-256 nM; 1:1 model. How it is done:
(§3) Anti-human IgG (Biacore BR-1008-39) was coupled to a CM5 biosensor chip by primary amine coupling. The anti-beta amyloid antibodies were captured on this surface. Beta amyloid (1-40) was then passed over at 256, 64, 16, 4 and 1 nM, with a 0 nM (ie buffer alone passed over the captured antibody surface) used for double referencing. […] The data was analysed using the 1:1 model inherent to the T100. The run was carried out at 25° C. and 37° C. using HBS-EP as the running buffer.

Assay [6] concerns the target T1, human β-amyloid 1-40. The assay can be described thus: SPR Biacore T100 at 37 C; antibody captured on anti-human IgG, Aβ 1-40 at 1-256 nM. As for the experimental part: as §3
From this panel some constructs were also assessed for binding kinetics at physiological temperature.

Substitutions are numbered along the chain they refer to. Ends that are not written are not given here. * marks the point of attachment. Biotin = O=C1N[C@H]2[C@H](CS[C@H]2CCCCC(=O)*)N1

We go through 19 molecules from patent US20090162358A1 (GlaxoSmithKline, published 2009).

What is called Kd is the constant that tells how readily two partners part at equilibrium. A word on the koff: it is the rate constant with which the complex falls apart. Low readings indicate slow dissociation, high ones fast dissociation. In general, kon refers to a measure of how fast the partners come together.

T1 sequence (P05067 672-711 limits assumed): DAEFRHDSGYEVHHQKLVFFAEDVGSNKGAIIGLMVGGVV

B1: 2C1 mouse monoclonal antibody (antibody, V domains shown)
VH: EVQLQQSGAELVKPGASVKLSCTGSGFNIKVYYVHWLKQLTEQGLEWIGRIDPENGETIYAPKFQDKATLTVDTSSNTAYLQLSSLTSEDTAVYYCVSSGYWGQGTTLTVSS
VL: DIVMTQSAFSNPVTLGTSASISCRSSKSLLHRNGITYLYWYLQKPGQSPQLLIYQMSNLASGVPDRFTSSGSGTDFTLKISRVEAEDVGVYYCAQNLELWTFGGGTKLEIK
notes: Mouse hybridoma antibody
In the assay with human β-amyloid 1-40 [1], B1 returned a Kd of 1.95 nM, an off-rate constant (koff) of 0.000129 s⁻¹ and a kon of 66300 M⁻¹ s⁻¹. In addition, in the assay with ovalbumin protein, the binding result is listed as “no binding”. Besides, the binding result in assay [2] is “binds”. Besides, in assay [3], the binding result was “binds”.

B2: 5C9 mouse monoclonal antibody (antibody, V domains shown)
VH: EVQLQQSGAEFVRPGASVKLSCTASGFNIKTYYIHWLKQRTDQGLEWIGRIDPEDGETKFGPKFRGKATLTADTSSNTASLQLSSLTSEDTGVYYCVTSGYWGQGTTLSVSS
VL: B1 VL with S7A, R32S, T68S, K79R
notes: Mouse hybridoma antibody
In the assay with human β-amyloid 1-40 [1], B2 returned a dissociation constant Kd of 2.69 nM, a koff of 0.000164 s⁻¹ and a kon of 61100 M⁻¹ s⁻¹. The binding result in the assay with ovalbumin protein was “no binding”. Moreover, the binding result in assay [2] is given as “binds”. For the same molecule, the binding result in assay [3] is “binds”.

B3: 2E11 mouse monoclonal antibody (antibody, V domains shown)
VH: B1 VH with L11V, G24A, V34I, I59K, A61V, D66G, Q82H, A92G, S98T
VL: B1 VL with S7A, T14A, R32S, T68S, K79R
notes: Mouse hybridoma antibody
In the assay with human β-amyloid 1-40 [1], B3 showed a Kd of 2.01 nM, a koff of 0.00017 s⁻¹ and an on-rate (kon) of 84500 M⁻¹ s⁻¹. In addition, the binding result with ovalbumin protein was “no binding”. Also, in assay [2], the binding result was “binds”. Besides, in assay [3], the binding result is “binds”.

B4: 14B3 mouse monoclonal antibody (antibody, V domains shown)
VH: B1 VH with K13E, I59L, A61T, D66G, L70F
VL: B1 VL
notes: Mouse hybridoma antibody
Turning to B4, in the assay with human β-amyloid 1-40 [1], the Kd is 0.95 nM, the koff was 7.11e-05 s⁻¹ and the kon worked out at 74800 M⁻¹ s⁻¹. For the same molecule, in the assay with ovalbumin protein, the binding result is given as “no binding”. Also, in assay [2], the binding result is listed as “binds”. In addition, the binding result in assay [3] is “binds”.

B5: 5D1 mouse monoclonal antibody (antibody, V domains shown)
VH: B1 VH with I59K, Q82H
VL: B1 VL
notes: Mouse hybridoma antibody
On to B5, for which the Kd with human β-amyloid 1-40 [1] worked out at 2.57 nM; with human β-amyloid 1-40 [4], 2.05 nM. The koff in the assay with human β-amyloid 1-40 [1] amounted to 0.000147 s⁻¹; with human β-amyloid 1-40 [4], 0.000135 s⁻¹. Also, the kon was 57000 M⁻¹ s⁻¹ with human β-amyloid 1-40 [1] and 65800 M⁻¹ s⁻¹ with human β-amyloid 1-40 [4]. The binding result is given as “no binding” with ovalbumin protein, “binds” in assay [2] and “binds” in assay [3].

B6: 4D4 mouse monoclonal antibody (antibody, V domains shown)
VH: B1 VH with K13E, I59L, A61T, D66G, S84N, T107S
VL: B1 VL
notes: Mouse hybridoma antibody
In the assay with human β-amyloid 1-40 [1], B6 yielded a Kd of 1.13 nM, a koff of 8.27e-05 s⁻¹ and a kon of 73200 M⁻¹ s⁻¹. Further, the binding result with ovalbumin protein is listed as “no binding”. In addition, the binding result in assay [2] is recorded as “binds”. Also, the binding result in assay [3] was “binds”.

B7: 16D4 mouse monoclonal antibody (antibody, V domains shown)
VH: B1 VH with G24A, V31D, V34M, I59Q, D66G, T69S, V72A, Q82H
VL: B1 VL with S7A, R32S, T68S, K79R
notes: Mouse hybridoma antibody
On to B7, for which, in the assay with human β-amyloid 1-40 [1], the affinity, expressed as Kd, was 7.62 nM; the dissociation rate constant (koff) came out at 0.000618 s⁻¹; the kon turned out to be 81200 M⁻¹ s⁻¹. Besides, in the assay with ovalbumin protein, the binding result is reported as “no binding”. The binding result in assay [2] is on record as “binds”. Also, the binding result in assay [3] was “binds”.

B8: humanised de-immunised construct H48L19 (antibody, human IgG1, V domains shown)
VH: QVQLVQSGAEVKEPGASVKVSCKGSGFNIHVYYVHWLRQLPEKGLEWIGRIDPENGETIYTPKFQDKATLTVDTSTDTAYMELSSLRSEDTAVYYCVSSGYWGQGTLVTVSS
VL: DIVMTQSPLSNPVTPGEPASISCRSSKSLLHRNGKTYLYWYLQKPGQSPQLLIYQMDHLASGVPDRFSSSGSGTDFTLKISRVEAEDVGVYYCAQNLELWTFGQGTKVEIK
B8: the Kd in the assay with human β-amyloid 1-40 [5] was 3.15 nM.

B9: humanised de-immunised construct H51L21 (antibody, human IgG1, V domains shown)
VH: B8 VH with V31T
VL: B8 VL with H58N
Consider B9, for which the Kd with human β-amyloid 1-40 [5] amounted to 2.05 nM; with human β-amyloid 1-40 [6] it was 2.9 nM.

B10: humanised de-immunised construct H49L20 (antibody, human IgG1, V domains shown)
VH: B8 VH with H30K, V31T
VL: B8 VL with K35I
Molecule B10 showed a Kd with human β-amyloid 1-40 [5] of 2.23 nM.

B11: humanised de-immunised construct H51L20 (antibody, human IgG1, V domains shown)
VH: B8 VH with V31T
VL: B8 VL with K35I
B11: the Kd came out at 2.23 nM with human β-amyloid 1-40 [5] and 3.89 nM in the assay with human β-amyloid 1-40 [6].

B12: humanised de-immunised construct H50L19 (antibody, human IgG1, V domains shown)
VH: B8 VH with K23T
VL: B8 VL
On to B12, for which the Kd with human β-amyloid 1-40 [5] stood at 2.76 nM.

B13: humanised de-immunised construct H50L20 (antibody, human IgG1, V domains shown)
VH: B8 VH with K23T
VL: B8 VL with K35I
B13: the dissociation constant Kd is 2.5 nM with human β-amyloid 1-40 [5] and 3.5 nM with human β-amyloid 1-40 [6].

B14: humanised de-immunised construct H50L21 (antibody, human IgG1, V domains shown)
VH: B8 VH with K23T
VL: B8 VL with H58N
With B14, the Kd with human β-amyloid 1-40 [5] came to 2.17 nM; in the assay with human β-amyloid 1-40 [6], 2.7 nM.

B15: humanised de-immunised construct H49L21 (antibody, human IgG1, V domains shown)
VH: B8 VH with H30K, V31T
VL: B8 VL with H58N
For B15, in the assay with human β-amyloid 1-40 [5], the Kd amounted to 2.58 nM.

B16: humanised de-immunised construct H48L21 (antibody, human IgG1, V domains shown)
VH: B8 VH
VL: B8 VL with H58N
With B16, the figures for the Kd with human β-amyloid 1-40 [5] and with human β-amyloid 1-40 [6] were 2.01 nM and 2.69 nM, respectively.

B17: humanised de-immunised construct H51L19 (antibody, human IgG1, V domains shown)
VH: B8 VH with V31T
VL: B8 VL
For B17, in the assay with human β-amyloid 1-40 [5], the Kd was 2.65 nM.

B18: humanised de-immunised construct H48L20 (antibody, human IgG1, V domains shown)
VH: B8 VH
VL: B8 VL with K35I
B18: the dissociation constant (Kd) in the assay with human β-amyloid 1-40 [5] is 2.02 nM; in the assay with human β-amyloid 1-40 [6], 3.54 nM.

B19: humanised de-immunised construct H49L19 (antibody, human IgG1, V domains shown)
VH: B8 VH with H30K, V31T
VL: B8 VL
Regarding B19, the affinity with human β-amyloid 1-40 [5], expressed as Kd, was 3.09 nM.
